Results on 1 molecule are retold here after PMC12412652.

For experiment [1], the target named is T1, MBP-BAK 16-186, biotinylated (Avi tag, 6-histidine tag) (human), Q16611.
T1 chain: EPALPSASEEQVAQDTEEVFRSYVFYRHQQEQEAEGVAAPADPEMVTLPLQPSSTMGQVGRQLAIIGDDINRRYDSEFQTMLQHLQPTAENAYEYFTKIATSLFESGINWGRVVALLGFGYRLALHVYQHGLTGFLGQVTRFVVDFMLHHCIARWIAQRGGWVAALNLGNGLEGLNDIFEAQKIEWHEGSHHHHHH
Briefly: BLI; Octet RED96; biotinylated BCL-2 family proteins (25 nM) immobilised on streptavidin biosensors, designed protein in solution; 10 mM Hepes pH 7.4, 150 mM NaCl, 3 mM EDTA, 0.05% surfactant P20, 0.5% nonfat dry milk; titrations in triplicate, 1:1 binding model.

For experiment [2], the target named is MBP-BAX 1-166 C62S C126S, biotinylated (Avi tag, 6-histidine tag) (human), Q07812. The description is as above.
MBP-BAX 1-166 C62S C126S, biotinylated (Avi tag, 6-histidine tag) (human), Q07812, sequence (Q07812 1-166 C62S/C126S): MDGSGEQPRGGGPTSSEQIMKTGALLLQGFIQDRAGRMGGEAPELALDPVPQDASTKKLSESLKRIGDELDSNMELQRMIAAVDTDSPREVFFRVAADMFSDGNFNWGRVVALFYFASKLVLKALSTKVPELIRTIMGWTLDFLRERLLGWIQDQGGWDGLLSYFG

B1: MBP-fused BH3 peptide from BID (domain or fragment)
chain: SESQEDIIRNIARHLAQVGDSMDRSIPPGLVNGL
modifications: not checked
By Kd is commonly meant the equilibrium constant for the complex coming apart. Low values mean higher affinity, high ones lower affinity. Regarding B1, the Kd is greater than 4000 nM in experiment [1] and 464 nM in experiment [2].
